Measurements as given in patent US20240301031A1 (JIANGSU HENGRUI PHARMACEUTICALS, published 2024).

Tests used:
[1] = target: T1, human BAFF (10056-HNCH, Sino biological) (human, UniProt Q9Y275 134-285); experiment: competition ELISA: biotin-labeled BAFF to coated BAFF-R
T1 construct: Bought protein
Procedure, shortened: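 Receptor coated at 2 μg/mL in PBS pH 7.4 overnight at 4° C and casein-blocked; fixed-concentration biotinylated ligand preincubated 30 min at 37° C with serially diluted antibody/fusion protein, then bound 1.5 h at 37° C. Streptavidin-HRP/TMB read at 450 nm; IC₅₀ from fitted binding-inhibition curves.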

[2] = target: T2, human APRIL (5860-AP-010/CF, R&D Systems) (human, UniProt O75888 115-250, limits assumed); experiment: SPR (Biacore), sample captured on Protein A, antigen flowed, 1:1 fit
T2 construct: Bought protein
T2 sequence (looked up): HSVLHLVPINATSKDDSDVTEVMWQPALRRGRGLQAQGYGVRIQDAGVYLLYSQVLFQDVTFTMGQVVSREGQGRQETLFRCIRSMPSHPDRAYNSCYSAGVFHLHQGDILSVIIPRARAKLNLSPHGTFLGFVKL

[3] = target: T1, human BAFF (10056-HNCH, Sino biological); experiment: as above
[4] = target: T3, mouse BAFF (BAF-M521y, Acro Biosystems) (mouse, UniProt Q9WU72 127-309); experiment: as above
T3 construct: Bought protein

[5] = target: T4, cynomolgus monkey APRIL (APR-CM410B, Kactus) (cynomolgus monkey); experiment: as above
T4 chain: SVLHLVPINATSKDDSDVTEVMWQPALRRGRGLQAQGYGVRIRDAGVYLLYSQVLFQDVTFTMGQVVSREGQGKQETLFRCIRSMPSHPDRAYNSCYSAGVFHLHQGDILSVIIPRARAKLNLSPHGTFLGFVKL

[6] = target: T5, mouse APRIL (7907-AP/CF, R&D Systems) (mouse, UniProt Q9D777 96-241, limits assumed); experiment: as above
T5 construct: Bought protein
T5 sequence (looked up): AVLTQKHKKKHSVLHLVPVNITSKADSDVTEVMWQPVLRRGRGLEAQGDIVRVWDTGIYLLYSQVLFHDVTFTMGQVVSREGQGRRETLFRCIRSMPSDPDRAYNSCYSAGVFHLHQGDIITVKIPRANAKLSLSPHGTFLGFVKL

B1: RCT-18 (Telitacicept) (Fc fusion)
chain: SRVDQEERFPQGLWTGVAMRSCPEEQYWDPLLGTCMSCKTICNHQSQRTCAAFCRSLSCRKEQGKFYDHLLRDCISCASICGQHPKQCAYFCENKLRSPVNLPPELDKTHTCPPCPAPEAEGAPSVFLFPPKPKDTLMISRTPEVTCVVVDVSHEDPEVKFNWYVDGVEVHNAKTKPREEQYNSTYRVVSVLTVLHQDWLNGKEYKCKVSNKALPSSIEKTISKAKGQPREPQVYTLPPSRDELTKNQVSLTCLVKGFYPSDIAVEWESNGQPENNYKTTPPVLDSDGSFFLYSKLTVDKSRWQQGNVFSCSVMHEALHNHYTQKSLSLSPGK
notes: Positive control; TACI part is positions 13-118 of the extracellular region of human TACI, the rest is Fc
- IC50 [1]: 27.5 nM
- Kd [2]: 0.0281 nM
- koff [2]: 0.000658 s⁻¹
- kon [2]: 2.34e+07 M⁻¹ s⁻¹
- Kd [3]: 0.186 nM
- koff [3]: 0.00018 s⁻¹
- kon [3]: 964000 M⁻¹ s⁻¹
- Kd [4]: 0.121 nM
- koff [4]: 8.98e-05 s⁻¹
- kon [4]: 740000 M⁻¹ s⁻¹
- Kd [5]: 0.0436 nM
- koff [5]: 0.000507 s⁻¹
- kon [5]: 1.16e+07 M⁻¹ s⁻¹
- Kd [6]: 0.00671 nM
- koff [6]: 1.69e-05 s⁻¹
- kon [6]: 2.52e+06 M⁻¹ s⁻¹
